# Source: patent US20080199896
# Assays:
# [1] = target: GST-TSC2 fragment 2 (amino acids 1357-1765) (UniProt P49816)
# [2] = target: GST-TSC2 fragment 1 (amino acids 910-1112) (UniProt P49816)
# [3] = target: purified TSC2-F2 fragment (AMPK assay, contains T1227) (UniProt P49816)
# [4] = target: TSC2 fragment containing S1345 (UniProt P49816)
Substance,in vitro phosphorylation by purified kinase [1],in vitro phosphorylation by purified kinase [2],in vitro phosphorylation by immunoprecipitated kinase [3],in vitro phosphorylation by immunoprecipitated kinase [4]
GST-Akt (wild type),"Wild-type Akt, but not the kinase-inactive Akt-KM mutant, efficiently phosphorylated both fragment 1 and fragment 2 of TSC2 in vitro","Wild-type Akt, but not the kinase-inactive Akt-KM mutant, efficiently phosphorylated both fragment 1 and fragment 2 of TSC2 in vitro",,
immunoprecipitated AMPK (in vitro kinase assay),,,In vitro phosphorylation of the purified TSC2-F2 fragment by immunoprecipitated AMPK showed that AMPK specifically phosphorylates TSC2 on T1227,"The TSC2 fragment was phosphorylated by immunoprecipitated AMPK, but not the kinase inactive AMPK mutant"
